In patent US7745192:

Target: human fibrinogen (UniProt P02671)

thrombin resulting from action of Brown snake venom protease
SDS PAGE banding patterns of washed fibrin clots: thrombin resulting from action of Brown snake venom protease converts fibrinogen to fibrin in a similar manner as normal α-thrombin
